Substrate: O=CO
Experiment: purified protein
Settings: 1 mM benzyl viologen, pH 7.5, 25 °C, anaerobic, buffer 50 mM phosphate or 25 mM MES/TAPS/HEPES/K acetate (Figure 3 legend)

B1: EcFDH-H (FDH) (Escherichia coli K-12) (protein)
chain: MKKVVTVCPYCASGCKINLVVDNGKIVRAEAAQGKTNQGTLCLKGYYGWDFINDTQILTPRLKTPMIRRQRGGKLEPVSWDEALNYVAERLSAIKEKYGPDAIQTTGSSRGTGNETNYVMQKFARAVIGTNNVDCCARVUHGPSVAGLHQSVGNGAMSNAINEIDNTDLVFVFGYNPADSHPIVANHVINAKRNGAKIIVCDPRKIETARIADMHIALKNGSNIALLNAMGHVIIEENLYDKAFVASRTEGFEEYRKIVEGYTPESVEDITGVSASEIRQAARMYAQAKSAAILWGMGVTQFYQGVETVRSLTSLAMLTGNLGKPHAGVNPVRGQNNVQGACDMGALPDTYPGYQYVKDPANREKFAKAWGVESLPAHTGYRISELPHRAAHGEVRAAYIMGEDPLQTDAELSAVRKAFEDLELVIVQDIFMTKTASAADVILPSTSWGEHEGVFTAADRGFQRFFKAVEPKWDLKTDWQIISEIATRMGYPMHYNNTQEIWDELRHLCPDFYGATYEKMGELGFIQWPCRDTSDADQGTSYLFKEKFDTPNGLAQFFTCDWVAPIDKLTDEYPMVLSTVREVGHYSCRSMTGNCAALAALADEPGYAQINTEDAKRLGIEDEALVWVHSRKGKIITRAQVSDRPNKGAIYMTYQWWIGACNELVTENLSPITKTPEYKYCAVRVEPIADQRAAEQYVIDEYNKLKTRLREAALA
Labelled compound
  Km: 158 ± 8 µM
Two highest formate points neglected in fit
  Km: 58 ± 8 µM
